Here are results for 18 sequences from the supplement of paper PMC9170038.

In this data set the test system is K4 kissing-loop RNA reporter. The data set can be described thus: apparent KD of K4 kissing-loop reporter; higher = weaker reporter binding. The following applies: Eterna round: R107. On the procedure:
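RNA-MaP round R107: designed RNA switches with theophylline, tryptophan, arginine or FMN aptamers are transcribed on-chip within common flanks. They are titrated with a labelled K4 kissing-loop RNA reporter in RNA-MaP buffer (100 mM Tris pH 7.5, 80 mM KCl, 4 mM MgCl2), without ligand or with the indicated ligand. Median apparent KD per design.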

Setting [1] is: input ligand: theophylline 20 uM.
Where [2] appears, read: input ligand: tryptophan 2.4 mM.
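Note: bound reporter read as fluorescence of individual clusters on recovered sequencing chips by microscopy, with normalized cluster intensities fitted with a binding model.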

On to “AUACAGCGACGCGCUAGUGAUGUUAGCGAAGGAGCGACUCAUGAGUCAGGUAGGUCGCGCUAACGUGGUUACGAGAGUAACCAGU [Arg A Ex t1a]”, for which the “apparent KD of K4 kissing-loop reporter” value is 93.3 nM (input ligand: FMN 200 uM); 86.8 nM (input ligand: arginine 13.2 mM); 93.6 nM (input ligand: none); 80.1 nM under setting [1]; 89.4 nM under setting [2].
Turning to “AUCAGUUCAGCUGAUACCAGUCAGGAGUGAUGUUCCUGCUCGCGUCAGCCGCGUCGACAAGACCCUUGGCAGCAGCUCUAAGUGU [theeternabot_exclusion_KL_Theo_B_40]”, the “apparent KD of K4 kissing-loop reporter” value (input ligand: FMN 200 uM) is 114 nM; the “apparent KD of K4 kissing-loop reporter” value (input ligand: arginine 13.2 mM) is 98.1 nM; the “apparent KD of K4 kissing-loop reporter” value (input ligand: none) was 110 nM; the “apparent KD of K4 kissing-loop reporter” value under setting [1] came to 103 nM; the “apparent KD of K4 kissing-loop reporter” value under setting [2] turned out to be 110 nM.
Consider “AUCCAUAGUGAUGUUGUGAGCGGAGGCACCAAGGAUAUUGCCAGCCCAAGAAGGUGGGUCCCACACACCAGGCAUACAAGUCCGG [theeternabot_exclusion_KL_FMN_A_43]”, for which the “apparent KD of K4 kissing-loop reporter” value (input ligand: FMN 200 uM) came to 1040 nM; the “apparent KD of K4 kissing-loop reporter” value (input ligand: arginine 13.2 mM) came out at 845 nM; the “apparent KD of K4 kissing-loop reporter” value (input ligand: none) amounted to 1160 nM; the “apparent KD of K4 kissing-loop reporter” value under setting [1] is 944 nM; the “apparent KD of K4 kissing-loop reporter” value under setting [2] was found to be 837 nM.
The like results for “AUCGUUGUCUGAGGAUAUCGGUUAUCUGUAGUGAUGUUACAGUAUAUUGAUAUUAAAGUUUCUAUUCGAGAAGGCAGACUACGUA [JR_Nu_ExcFMNB_Sub022]” were, in that order, 71.4 nM, 65.4 nM, 72.1 nM, 58.9 nM and 71.9 nM.
In the case of “AUCGUUGUCUGAGGAUAUCGGUUAUCUGUAGUGAUGUUACAGUAUAUUGAUAUUAUAGUUUCUUUUCGAGAAGGCAGACUACGUA [JR_Nu_ExcFMNB_Sub021]”, the “apparent KD of K4 kissing-loop reporter” value runs as follows: (input ligand: FMN 200 uM) 74.1 nM; (input ligand: arginine 13.2 mM) 61.3 nM; (input ligand: none) 68.9 nM; under setting [1], 65.4 nM; under setting [2], 66.4 nM.
In the same order, the values of “AUGAGGAGCAGUGAUCCUAUUCCAUGGGAAGGAGCGUAGGAUACUACAGGUAGGUCGCCCAGUGAUGUUGGGCGCGUGCUCUUGG [Zaqua]” are 159 nM, 133 nM, 133 nM, 178 nM and 146 nM.
In the same order, the values of “AUGCGACGUGCGGCCGCCACUCGGAUGCGAGUGAUGUUCGCGGGACGGACGCAAGUCCGUCAUUCGAGGACCGGGCAUCGGUGUA [#2 Same State - Tryptophan B Attempt #2 (HarryS)]” are 555 nM, 462 nM, 636 nM, 512 nM and 139 nM.
As to “AUGCGCAGCCUGCUUACGUAUGAGCCGGAAGGAGCGGCAGAAUUGCCAGGUAGGUCGCCGGCCCAGUGAUGUUGGGAUGGUGUGG [Atusqubela]”, the “apparent KD of K4 kissing-loop reporter” value worked out at 279 nM (input ligand: FMN 200 uM); 167 nM (input ligand: arginine 13.2 mM); 343 nM (input ligand: none); 419 nM under setting [1]; 264 nM under setting [2].
In the same order, the values of “AUGCUUUUAAUAACACUAUAUACAGCUGAAGGAGCGACAAUAAAGUCAGGUAGGUCGCAGAAUAGAUGAGUGAUGUUCAUUUUUA [#05 K4 Arginine A Exclusion]” are 92.8 nM, 178 nM, 118 nM, 166 nM and 76.9 nM.
The like results for “AUGGUAUUGCGAGGAUAUCCUUCAAACGUGACACUAACGGCAGUGAUGUUGCCGGCGUCGAUCAGAGGAGAAGGCGCGGUGUUAU [Exclusion FMN B GF 23]” were, in that order, 118 nM, 117 nM, 122 nM, 125 nM and 119 nM.
For the sequence “AUGUCUUAUAAACUCGUGGUUUCGAUCGAUACCAGUAGCGAGAGUUACCCUUGGCAGCGACAUGAGUGAUGUUCAUGUACGAAGA [KL-XTheoA4]”, the “apparent KD of K4 kissing-loop reporter” value (input ligand: FMN 200 uM) is 96.1 nM; the “apparent KD of K4 kissing-loop reporter” value (input ligand: arginine 13.2 mM) came out at 89 nM; the “apparent KD of K4 kissing-loop reporter” value (input ligand: none) stood at 94.3 nM; the “apparent KD of K4 kissing-loop reporter” value under setting [1] amounted to 90.2 nM; the “apparent KD of K4 kissing-loop reporter” value under setting [2] was 92.9 nM.
The like results for “AUUAAUAUCACGGCCGCCACUGAAUAUUGUUUUUAUAUUUAGAAAUCUUGCCAGUGAUGUUGGAUCAGGACCGGGUGAGUUUAUA [JR_SSTryptoB_Sub006]” were, in that order, 613 nM, 439 nM, 463 nM, 424 nM and 444 nM.
The like results for “AUUCGUUUAUGUGAUACCAGACUUUGCAGUGAUGUUGCUUUAAUUAAAGAUGUUUAGUUUGUCCCUUGGCAGCACUAUUUAUUUA [JR_SSTheophyB_Sub001]” were, in that order, 54 nM, 113 nM, 68.4 nM, 129 nM and 48.8 nM.
The like results for “AUUUGUUUAUGUGAUACCAGACUUUGCAGUGAUGUUGCAUUUAUUUUAGAAGAAUAGUUUGUCCCUUGGCAGCACUAUGUAUUUA [JR_SSTheophyB_Sub006]” were, in that order, 44.9 nM, 98.2 nM, 49.3 nM, 80.7 nM and 41.5 nM.
In the case of “AUUUUUUUGUCAGGAUAUUAGUAUGCUUUUGGUUUGUUAGUGAUGUUGAUAUUUUGUUUAUGUAUUUAAGAAGGGAUUUAGCGGU [etvuumullin]”, the “apparent KD of K4 kissing-loop reporter” value is, setting by setting: (input ligand: FMN 200 uM) 409 nM; (input ligand: arginine 13.2 mM) 276 nM; (input ligand: none) 362 nM; under setting [1], 371 nM; under setting [2], 255 nM.
The like results for “AUUUUUUUGUCAGGAUAUUAGUGUGCGUUUGGUUUGUUAGUGAUGUUGAUAUUUGGUUUAUGUAUUUAAGAAGGGAUUUAGCGGU [dhbbtemullin]” were, in that order, 557 nM, 480 nM, 562 nM, 582 nM and 357 nM.
“CAAACGUGCGGUAGGUUCAAGCGCUGGGAAGGAGCGCAGAUGACUGCAGGUAGGUCGCCCAGUGAUGUUGGGCUUUCCACCUACG [Dilausma]”: the “apparent KD of K4 kissing-loop reporter” value by setting is: (input ligand: FMN 200 uM) 138 nM; (input ligand: arginine 13.2 mM) 123 nM; (input ligand: none) 119 nM; under setting [1], 138 nM; under setting [2], 99.9 nM.
Turning to “CACAGAUCCUAAGGAUAUGGAGUGAUGUUCGCAAGUUCUUGGUGUGCAUUCAUCUGUCCUAUCAACCCAGAAGGUAGGAAGUCAC [theeternabot_exclusion_KL_FMN_B_1]”, the “apparent KD of K4 kissing-loop reporter” value reads like this: (input ligand: FMN 200 uM) 607 nM; (input ligand: arginine 13.2 mM) 516 nM; (input ligand: none) 550 nM; under setting [1], 993 nM; under setting [2], 604 nM.
